Experimental data from paper PMC7898468, “TrkA-mediated endocytosis of p75-CTF prevents cholinergic neuron death upon γ-secretase inhibition” (Life Science Alliance, 2021).
Values belong to the molecule of their own block, whether it stands above or below them.

Columns and labels:
[1] = biological target: HA-p75-CTF (truncated p75NTR construct that mimics the endogenously generated C-terminal fragment), wild type (UniProt P07174); test: non-reducing SDS-PAGE and Western blot; total membranes (and lysates) of HeLa cells transfected with p75-CTF constructs, 16 h with or without 10 uM compound E; sample buffer with 1% beta-mercaptoethanol keeps the C257 disulfide dimers; anti-p75NTR blot; shows only SDS-resistant disulfide dimers
[2] = biological target: endogenous p75-CTF of mouse dorsal root ganglia neurons (mouse (endogenous in dorsal root ganglia)); test: non-reducing SDS-PAGE and Western blot; lysate of dorsal root ganglia from P2 mice, 24 h at 37 C with or without compound E (10 uM)
[3] = biological target: the molecule itself; test: SDS-PAGE and Western blot with or without DTT; purified C101-p75-3xFLAG substrates, with or without DTT (20 mM), anti-FLAG blot

- stoichiometry N [1]: 2
Molecule: HA-p75-CTF (truncated p75NTR construct that mimics the endogenously generated C-terminal fragment), wild type (from UniProt P07174 245-425) (domain or fragment)

- stoichiometry N [2]: 2
Molecule: endogenous p75-CTF of mouse dorsal root ganglia neurons (domain or fragment)

B1: C101-p75-wt-3xFlag (domain or fragment, rat)
chain: MVTTVMGSSQPVVTRGTTDNLIPVYCSILAAVVVGLVAYIAFKRWNSCKQNKQGANSRPVNQTPPPEGEKLHSDSGISVDSQSLHDQQTHTQTASGQALKG
notes: rat p75NTR, transmembrane domain and juxtamembrane region; Forms DTT-sensitive disulfide dimers; also called p75-C101-wt; C101-wt; source: COS1, transiently transfected, purified (anti-FLAG M2 agarose); not shown: 3xFLAG, C-terminal, kept
- stoichiometry N [3]: 2
